# Test results as given in the FLAb antibody collection.
# Experiment: melting temperature
# Conditions: Circular dichroism
row,Sequence,Tm
1,ARVDOTPRTATKETGESLTINCVLTDTSYGLSSTYWYRKNPGSSNKEQISISGRYVESVNKRTKSFSLRIKDLTVADSATYICNAYIVRGVYGIIAKDVYGDGTALTVK,64 °C
2,ARVEQTPRTATKETGESLTINCVLTGGSCSLYSTSWFRKNPGTTDWERISIGGRYVESVNKGAKSFSLRIKDLTVADSATYYCKAQSCMDSRTVVLDWYEGSGTVLTVK,76 °C
3,AWVDQTPRTATKETGESLTINCVLTGTSCSLYSTSWFRKNPGTTDWERISIGGRYVESVNKGAKSFSLRIKDLTVADSATYYCKAQTADTWITVVIDGYDWYDGAGTALTVK,59 °C
4,DVQLQESGGGLVQPGGSLRLSCAASGFLFSDTYMTWARQAPGKGLEWLGGISKDGSGTLYEDSVEGRFTISRDNAKNTLYLQMNSLKSEDTALYYCSTGALLPTRPQGQGTQVTVSS,51.5 °C
5,EVQLVESGGGLVQPGGSLRLSCAASGSTFSSSSVGWYRQAPGKGLELVSAITSGGSTNTADSVKGRFTISRDNSKNTLYLQMNSLRAEDTAVYYCNVAGRNWVPISRYSPGPYWGQGTLVTVSS,63.3 °C
6,EVQLVESGGGLVQPGGSLRLSCAASGSTFSSSSVGWYRQAPGKQRELVSAITSGGSTNTADSVKGRFTISRDNSKNTLYLQMNSLRAEDTAVYYCNVAGRNWVPISRYSPGPYWGQGTLVTVSS,60.9 °C
7,PRVEQTPRITTKETGESLTINCVLTGTSCNLWTATWFRKNPGTTDWERIRIGGRYVESVNKGAKSFSLRIKDLTVADSATYYCKVQFNLYCGEADWYDGAGTLLTVK,66 °C
8,QLQLVESGGGLVQAGGSLRLSCAASGRTFSSATMGWFRQAPGKEREFVAAISWSGLSRYYADSVKGRFTISRDNAENTVYLQMNSLKTEDTAVYYCAADSWGCSGLGCYDARQYDVWGQGTQVTVSS,98.2 °C

# Same assay, conditions: DSF (SYPRO)
row,Sequence,Tm
1,DVQLQASGGGLVQAGGSLRLSCAASGSTFSIKHHGWYRRAPGNQREWVAGINSENITNVAGAVKGRFTISRDNAKNTVYLQMNSLKVEDTAVYFCYAQDNDYRFLHRFWGQGTQVTVSLEPKTPKPQ,52 °C
2,DVQLVESGGGSVQAGGSLRLSCAASGYIASINYLGWFRQAPGKEREGVAAVSPAGGTPYYADSVKGRFTVSLDNAENTVYLQMNSLKPEDTALYYCAAARQGWYIPLNSYGYNYWGQGTQVTVSS,74 °C
3,EVQLQASGGGLVQAGSSLRLSCAASGLTTSTLYRMGWFRQAPGKEREFVGTITWSGGSTHYPDSLKGRFTISRDDAKNTGFLQMDSLKPEDTAIYYCAARTSAGIYDPTSPPAYDSWGQGTQVTVSS,70 °C
4,EVQLQASGGGLVQPGGSLRLACVASGFTLEYSAIGWFRQAPGKEREAVSRIRNRDGRAIYADSVKDRFTISRDNAKSTVYLQMDSLKPEDTATYYCGRHIGVRSSWALPSEYDYWGQGTQYIYSS,60 °C
5,EVQLQASGGGLVQPGGSLRLSCTASGSIFSINAMGWYRQTPRKERELVAAISEGGSTKYGDSVKGRFTISRDFAKNTQMVYLQMNSLKAEDTAVYYCKAQTEGPIADWGTSQYEYWGQGTQVTVSS,51 °C
6,GPHMAQVQLVESGGRLVQAGDSLRLSCAASGRTFSTSAMAWFRQAPGREREFVAAITWTVGNTILGDSVKGRFTISRDRAKNTVDLQMDNLEPEDTAVYYCSARSRGYVLSVLRSVDSYDYWGQGTQVTVS,53.6 °C
7,KVQLVESGGGLVQAGGSLRLACTASGSAFSINTMGWYRRAPGKQRELVASITSSGSTTYADSVKGRFTISRDSAKNTVFLQMNSVKPEDTSVYYCNGEIQRTDYNFWGQGTQVTVSS,59.6 °C
8,QVKLEESGGGLVQAGGSLRLSCAASERTFSRYPVAWFRQAPGAEREFVAVISSTGRSTYYADSVKGRFTISRDNAKVTVYLQMNNLKREDTAVYFCAVNSKRRRLQDPNEYDYWGQGTQVTVSSGSEQKLISEEDLNHHHHHH,81.6 °C
9,QVKLEESGGGLVQAGGSLRLSCAASERTFSRYPVAWFRQAPGAEREFVAVISSTGRSTYYADSVKGRFTISRDNAKVTVYLQMNNLKREDTAVYFCAVNSKRTRLQDPNEYDYWGQGTQVTVSSGSEQKLISEEDLNHHHHHH,81.4 °C
10,QVKLEESGGGLVQAGGSLRLSCAASERTFSRYPVAWFRQAPGAEREFVAVISSTGRSTYYADSVKGRFTISRDNAKVTVYLQMNNLKREDTAVYFCAVNSQRMRLQDPNEYDYWGQGTQVTVSSGSEQKLISEEDLNHHHHHH,77 °C
11,QVKLEESGGGLVQAGGSLRLSCAASERTFSRYPVAWFRQAPGAEREFVAVISSTGTSKYYADSVKGRFTISRDNAKVTVYLQMNNLKREDTAVYFCAVNSQRTRLQDPNEYDYWGQGTQVTVSSGSEQKLISEEDLNHHHHHH,76.9 °C
12,QVKLEESGGGLVQAGGSLRLSCAASERTFSRYPVAWFRQAPGAEREFVAVISSTGTSTYYADSVKGRFTISRDNAKVTVYLQMNNLKREDTAVYFCAVNSKRKRLQDPNEYDYWGQGTQVTVSSGSEQKLISEEDLNHHHHHH,81.5 °C
13,QVKLEESGGGLVQAGGSLRLSCAASERTFSRYPVAWFRQAPGAEREFVAVISSTGTSTYYADSVKGRFTISRDNAKVTVYLQMNNLKREDTAVYFCAVNSKRMRLQDPNEYDYWGQGTQVTVSSGSEQKLISEEDLNHHHHHH,81.3 °C
14,QVKLEESGGGLVQAGGSLRLSCAASERTFSRYPVAWFRQAPGAEREFVAVISSTGTSTYYADSVKGRFTISRDNAKVTVYLQMNNLKREDTAVYFCAVNSKRRRLQDPNEYDYWGQGTQVTVSSGSEQKLISEEDLNHHHHHH,81.9 °C
15,QVKLEESGGGLVQAGGSLRLSCAASERTFSRYPVAWFRQAPGAEREFVAVISSTGTSTYYADSVKGRFTISRDNAKVTVYLQMNNLKREDTAVYFCAVNSKRTRLQDPNEYDYWGQGTQVTVSSGSEQKLISEEDLNHHHHHH,81.4 °C
16,QVKLEESGGGLVQAGGSLRLSCAASERTFSRYPVAWFRQAPGAEREFVAVISSTGTSTYYADSVKGRFTISRDNAKVTVYLQMNNLKREDTAVYFCAVNSQRKRLQDPNEYDYWGQGTQVTVSSGSEQKLISEEDLNHHHHHH,78.5 °C
17,QVKLEESGGGLVQAGGSLRLSCAASERTFSRYPVAWFRQAPGAEREFVAVISSTGTSTYYADSVKGRFTISRDNAKVTVYLQMNNLKREDTAVYFCAVNSQRMRLQDPNEYDYWGQGTQVTVSSGSEQKLISEEDLNHHHHHH,77.4 °C
18,QVKLEESGGGLVQAGGSLRLSCAASERTFSRYPVAWFRQAPGAEREFVAVISSTGTSTYYADSVKGRFTISRDNAKVTVYLQMNNLKREDTAVYFCAVNSQRRRLQDPNEYDYWGQGTQVTVSSGSEQKLISEEDLNHHHHHH,79.1 °C
19,QVKLEESGGGLVQAGGSLRLSCAASERTFSRYPVAWFRQAPGAEREFVAVISSTGTSTYYADSVKGRFTISRDNAKVTVYLQMNNLKREDTAVYFCAVNSQRTRLLDPNEYDYWGQGTQVTVSSGSEQKLISEEDLNHHHHHH,80 °C
20,QVKLEESGGGLVQAGGSLRLSCAASERTFSRYPVAWFRQAPGAEREFVAVISSTGTSTYYADSVKGRFTISRDNAKVTVYLQMNNLKREDTAVYFCAVNSQRTRLQDPREYDYWGQGTQVTVSSGSEQKLISEEDLNHHHHHH,77.6 °C
21,QVKLEESGGGLVQAGGSLRLSCAASERTFSRYPVAWFRQAPGAEREFVAVISSTGTSTYYADSVKGRFTISRDNAKVTVYLQMNNLKREDTAVYFCAVNSQRTRLQNPNEYDYWGQGTQVTVSSGSEQKLISEEDLNHHHHHH,74.9 °C
22,QVKLEESGGGLVQAGGSLRLSCAASERTFSRYPVAWFRQAPGAEREFVAVISSTGTSTYYADSVKGRFTISRDNAKVTVYLQMNNLKREDTAVYFCAVNSQRTRLQYPNEYDYWGQGTQVTVSSGSEQKLISEEDLNHHHHHH,73.4 °C
23,QVKLEESGGGLVQAGGSLRLSCAASERTFSRYPVAWFRQAPGAEREFVAVISSTGTSTYYADSVKGRFTISRDNAKVTVYLQMNNLKREDTAVYFCAVNSQRTRLWDPNEYDYWGQGTQVTVSSGSEQKLISEEDLNHHHHHH,79.7 °C
24,QVKLEESGGGLVQAGGSLRLSCAASERTFSRYPVAWFRQAPGAEREFVAVISSTGTSTYYADSVKGRFTISRDNAKVTVYLQMNNLKREDTAVYFCAVNSQRTRLYDPNEYDYWGQGTQVTVSSGSEQKLISEEDLNHHHHHH,79 °C
25,QVKLEESGGGLVQAGGSLRLSCAASERTFSRYPVAWFRQAPGAEREFVAVISSTGTSTYYADSVKGRFTISRDNAKVTVYLQMNNLKREDTAVYFCAVNSQRTWLQDPNEYDYWGQGTQVTVSSGSEQKLISEEDLNHHHHHH,77.3 °C

# Same assay, conditions: nanoDSF
row,Sequence,Tm
1,KVQLVESGGGLVQAGGSLRLACTASGSAFSINTMGWYRRAPGKQRELVASITSSGSTTYADSVKGRFTISRDSAKNTVFLQMNSVKPEDTSVYYCNGEIQRTDYNFWGQGTQVTVSS,63.5 °C
